{
  "source": "patent US10548950B2",
  "about": "“Irisin-related cancer treatments” (STC.UNM, priority 2014, dated 2020)",
  "molecules": {"B1": {"name": "IM: human recombinant modified and active (glycosylated) irisin from PlexBio (protein, UniProt Q8NAU1 1-191, looked up)", "Irisin": "MQAARGGAGRPERPGRPGRGPERERERPPGAGAASPCAAPGLPAGGATIHPGSPSAWPPRARAALRLWLGCVCFALVQADSPSAPVNVTVRHLKANSAVVSWDVLEDEVVIGFAISQQKKDVRMLRFIQEVNTTTRSCALWDLEEDTEYIVHVQAISIQGQSPASEPVLFKTPREAEKMASKNKDEVTMKE", "modifications": "Irisin glycosylated"}, "B2": {"name": "irisin: 112 aa peptide cleaved from FNDC5; term covers both non-modified (INM) and glycosylated (IM) irisin (protein)", "chain": "DSPSAPVNVTVRHLKANSAVVSWDVLEDEVVIGFAISQQKKDVRMLRFIQEVNTTTRSCALWDLEEDTEGIVHVQAISIQGQSPASEPVLFKTPREAEKMASKNKDEVTMKE", "modifications": "non-modified irisin", "notes": "112 aa peptide cleaved from FNDC5; term covers both non-modified (INM) and glycosylated (IM) irisin"}},
  "key": {"MDA-MB-231 cells [1]": {"test_system": "MDA-MB-231 cells", "test": "Doxorubicin sensitivity: cell viability (WST-1) with Dox with or without irisin", "assay_type": "cell-based, Human", "details": "24 hours", "protocol": "Cells were seeded overnight at a density of 5,000 cells/well, treated with or without varying concentrations of IM or INM (from 0.625 nM to 20 nM) (N=12). Cells were then incubated for 1 hour in medium containing 10% WST-1 cell proliferation reagent from Roche (Indianapolis, Ind.) and fluorescence was measured using a Wallac Victor3V 1420 Multilabel Counter from PerkinElmer (Waltham, Mass.). These methods were repeated with varying concentrations (from 0.156 μM to 10 μM) of the antineoplastic Doxorubicin (Dox) from Sigma (St. Louis, Mo.) dissolved in DMSO (using 0.1% for all treatments including control) with 2 nM IM or INM for 24 hours (N=8). At 24 hours, Dox uptake was measured using phase-contrast and fluorescence (N=24). Treatment concentrations and duration were determined empirically through pilot experiments and from previously published observations for Dox.^20"}, "[2]": {"test_system": "caspase-3/7 activity in MDA-MB-231 cells", "test": "Caspase-3/7 activity (kinetic apoptosis reagent, Incucyte ZOOM)", "assay_type": "cell-based, Human", "details": "MDA-MB-231, various concentrations, 24 hours", "from_the_text": "Cells were co-treated as previously described (N=12) with a kinetic caspase-3/7 apoptosis reagent from Essen Bioscience (Ann Arbor, Mich.). Caspase-3/7 activity was indicated by mean green fluorescence measured by the Incucyte ZOOM as described above."}, "RFP MDA-MB-231 cells": {"test_system": "RFP MDA-MB-231 cells", "test": "Cell proliferation by automated red object counting (Incucyte ZOOM)", "assay_type": "cell-based, Human", "details": "2 nM, 24 hours, compared with control", "protocol": "(§1) Human non-malignant breast epithelial cells (MCF-10a), malignant breast epithelial cells (MCF-7), and malignant aggressive breast epithelial cells (MDA-MB-231) were purchased from American Type Culture Collection (Manassas, Va.). Cells were maintained under standard conditions (37° C. in a 5% CO2) using growth media as described in Supporting Information Table 1. Cells were treated with either human recombinant non-modified irisin (INM) from Cayman Chemical (Ann Arbor, Mich.) or human recombinant modified and active (glycosylated) irisin (IM) from PlexBio (San Francisco, Calif.) at concentrations ranging from 0.625 nM to 20 nM dissolved in culture media for 24 hours. Concentrations of irisin were determined empirically through pilot experiments based on and previously published observations.^9 MDA-MB-231 cells were labeled with red fluorescent protein (RFP) by lentiviral-transfection using CytoLight Red vector from Essen Bioscience (Ann. Arbor, Mich.). […]\nRFP MDA-MB-231 cells were seeded overnight in 96-well plates at a density of 5,000 cells/well and treated with or without irisin at 2 nM (IM or INM) (N=64). Cell proliferation was measured by automated red object counting optimized for MDA-MB-231 cells using the Incucyte ZOOM live content imaging from Essen Bioscience (Ann Arbor, Mich.), measured every hour for 24 hours. […]"}, "MDA-MB-231 cells [3]": {"test_system": "MDA-MB-231 cells", "test": "Cell viability (WST-1) after irisin treatment for 24 hours", "assay_type": "cell-based, Human", "details": "0.625 nM to 20 nM, compared with control", "protocol": "as §1\n(§2) Cells were seeded overnight at a density of 5,000 cells/well, treated with or without varying concentrations of IM or INM (from 0.625 nM to 20 nM) (N=12). Cells were then incubated for 1 hour in medium containing 10% WST-1 cell proliferation reagent from Roche (Indianapolis, Ind.) and fluorescence was measured using a Wallac Victor3V 1420 Multilabel Counter from PerkinElmer (Waltham, Mass.). […]"}, "MCF-10a cells": {"test_system": "MCF-10a cells", "test": "Cell viability (WST-1) after irisin treatment for 24 hours", "assay_type": "cell-based, Human", "details": "0.625 nM to 20 nM, 24 hours post treatment", "protocol": "as §1, §2"}, "[4]": {"test_system": "NFκB activity in MDA-MB-231 cells", "test": "NFκB-GFP reporter system", "assay_type": "cell-based, Human", "details": "MDA-MB-231, 24 hours", "protocol": "Cells were transfected with a NFκB GFP-linked reporter system from Qiagen (Valencia, Calif.) before treatment with IM, INM, or TNF-α from R and D Systems (Minneapolis, Minn.) at various concentrations for 24 hours (N=12). NFκB activity was indicated by mean fluorescence measured by the Incucyte ZOOM as described above."}, "[5]": {"test_system": "malignant and non-malignant breast epithelial cell", "test": "Cell metabolism (data not shown)", "assay_type": "cell-based, Human", "details": "malignant and non-malignant cells"}, "[6]": {"test_system": "obesity-related cancer cells", "details": "Moon et al., MTT endpoint assay; cited from earlier work"}},
  "data": [
    {"molecule": "COc1cccc2c1C(=O)c1c(O)c3c(c(O)c1C2=O)C[C@@](O)(C(=O)CO)C[C@@H]3O[C@H]1C[C@H](N)[C@H](O)[C@H](C)O1", "note": "[Dox, Doxorubicin, reference compound]", "values": [
      {"measurement": "Cell viability, Dox treatment alone", "setting": "MDA-MB-231 cells [1]; MDA-MB-231, Dox 100 nM or 1.0 μM", "value": "not"},
      {"measurement": "Cell viability, Dox treatment alone", "setting": "MDA-MB-231 cells [1]; MDA-MB-231, Dox 10 μM", "value": "reduced cell viability"}
    ]},
    {"molecule": "TNF-α [reference compound]", "values": [
      {"measurement": "Caspase-3/7 activity", "setting": "[2]", "value": "significantly elevated"}
    ]},
    {"molecule": "B1", "values": [
      {"measurement": "Enhancement of Dox killing by irisin", "setting": "MDA-MB-231 cells [1]; MDA-MB-231, 2 nM irisin with Dox 100 nM to 10 μM", "value": "significantly enhanced Dox killing at 1.0 μM"},
      {"measurement": "Caspase-3/7 activity", "setting": "[2]", "value": "failed to activate caspase-3/7 activity"},
      {"measurement": "Cell proliferation of MDA-MB-231 cells", "setting": "RFP MDA-MB-231 cells", "value": "did not alter cell proliferation"},
      {"measurement": "Cell viability of MDA-MB-231 cells", "setting": "MDA-MB-231 cells [3]", "value": "unaffected"},
      {"measurement": "Cell viability of MCF-10a cells", "setting": "MCF-10a cells", "value": "decreased at the highest tested dose"},
      {"measurement": "NFκB activity", "setting": "[4]", "value": "did not alter NFκB activity"}
    ]},
    {"molecule": "B2", "values": [
      {"measurement": "Breast epithelial cell metabolism", "setting": "[5]", "value": "not significantly altered"},
      {"measurement": "Cell proliferation in obesity-related cancer cells", "setting": "[6]", "value": "no significant affect on cell proliferation"}
    ]}
  ]
}
